The target in test [1] is HLA-A*02:01. Description: IEDB peptide-MHC binding, cellular MHC/competitive/fluorescence; ≥ and ≤ were set here for values at or beyond the usual limits of such assays.
Test [2] addresses HLA-A*02:02. Described as above.
Test [3] concerns the target HLA-A*02:03. The description is as above.
Test [4] concerns the target HLA-A*02:06. Described as above. As to conditions: source organism: Vaccinia virus WR.
Test [5] concerns the target HLA-A*68:02. Kind of test: IEDB peptide-MHC binding, purified MHC/competitive/radioactivity; ≥ and ≤ were set here for values at or beyond the usual limits of such assays.
Test [6] concerns the target HLA-A*68:02. Kind of test: IEDB peptide-MHC binding, cellular MHC/competitive/fluorescence; ≥ and ≤ were set here for values at or beyond the usual limits of such assays. To be noted: source organism: Vaccinia virus WR.
The target of test [7] is HLA-A*02:06. Kind of test: IEDB peptide-MHC binding, purified MHC/competitive/radioactivity; ≥ and ≤ were set here for values at or beyond the usual limits of such assays.
Test [8] has as its target HLA-A*02:01. The test is described as above. As to conditions: source organism: Vaccinia virus WR.
Setting [9] is: source organism: Vaccinia virus WR.
Where [10] appears, read: source organism: Mammarenavirus choriomeningitidis.

For DTEFINKFL, the IC50 (as a rule, the concentration at which inhibition is half-maximal) was no less than 70 µM in test [1] (setting [9]); 7.42 µM in test [2] (setting [9]); 42.7 µM in test [3] (setting [9]); no less than 70 µM in test [4]; 0.117 µM in test [5] (setting [9]).

For the sequence FVVNGHTCM, the IC50 came to 22.3 µM in test [1] (setting [9]); 6.64 µM in test [2] (setting [9]); 5.9 µM in test [3] (setting [9]); 7.46 µM in test [6]; 1.81 µM in test [7] (setting [9]).

Regarding VILPDKIDGL, the IC50 was 8.09 µM in test [2] (setting [9]); 10.8 µM in test [3] (setting [9]); no less than 70 µM in test [6]; 1.79 µM in test [8]; 0.24 µM in test [7] (setting [9]).

Consider YVLFVKKML, for which the IC50 in test [1] (setting [9]) came to 5.15 µM; in test [2] (setting [9]), 31.1 µM; in test [3] (setting [9]) it was 12 µM; in test [6], 11.4 µM; in test [7] (setting [9]) it was 2.54 µM.

Regarding IIDLLLPST, the IC50 in test [1] (setting [9]) is 5.65 µM; in test [2] (setting [9]), 15.1 µM; in test [3] (setting [9]) it was 10.3 µM; in test [6] it was no less than 70 µM; in test [7] (setting [9]), 1.12 µM.

In the case of GVLPEETNI, the IC50 was determined as 17.3 µM in test [1] (setting [9]); 17.3 µM in test [2] (setting [9]); 20.4 µM in test [3] (setting [9]); 12 µM in test [6]; 0.573 µM in test [7] (setting [9]).

For RQQLEDIFM, the IC50 in test [1] (setting [9]) is 10 µM; in test [2] (setting [9]), 5.73 µM; in test [3] (setting [9]) it was 26.9 µM; in test [6], no less than 70 µM; in test [7] (setting [9]), 0.944 µM.

On to KVEKYLPEVI, for which the IC50 in test [1] (setting [9]) is 8.62 µM; in test [2] (setting [9]), 12.1 µM; in test [3] (setting [9]), 12.4 µM; in test [6] it was no less than 70 µM; in test [7] (setting [9]), 0.734 µM.

For IAGLKIEEI, the IC50 in test [1] (setting [9]) is 23.2 µM; in test [2] (setting [9]), 7.66 µM; in test [3] (setting [9]), 6.09 µM; in test [6] it was 27.5 µM; in test [7] (setting [9]), 1.97 µM.

Regarding TTNNLLEQLI, the IC50 in test [2] (setting [9]) came to 8.88 µM; in test [3] (setting [9]), 21 µM; in test [4] it was 13.1 µM; in test [8], 4.93 µM; in test [5] (setting [9]), 0.073 µM.

Regarding KADAVVADL, the IC50 in test [2] (setting [9]) was 5.14 µM; in test [3] (setting [9]), 12.4 µM; in test [6], 23.4 µM; in test [8], 3.96 µM; in test [7] (setting [9]) it was 2.21 µM.

VIVPDIKLDA: the IC50 in test [1] (setting [9]) is 22.6 µM; in test [2] (setting [9]) it was 33.5 µM; in test [3] (setting [9]) it was 21.4 µM; in test [6], no less than 70 µM; in test [7] (setting [9]) it was 0.883 µM.

For the sequence FIDRGSIKI, the IC50 stood at 6.95 µM in test [1] (setting [9]); 9.72 µM in test [2] (setting [9]); 12.2 µM in test [3] (setting [9]); 48 µM in test [6]; 4.03 µM in test [7] (setting [9]).

For the sequence ITLILSNKL, the IC50 in test [1] (setting [9]) was determined as 6.79 µM; in test [2] (setting [9]), 5.11 µM; in test [3] (setting [9]), 17.1 µM; in test [6], 8.73 µM; in test [7] (setting [9]) it was 0.396 µM.

For the sequence LALWDSNFFT, the IC50 in test [2] (setting [9]) is 11 µM; in test [3] (setting [9]), 19.9 µM; in test [6], no less than 70 µM; in test [8], 0.815 µM; in test [7] (setting [9]) it was 1.25 µM.

With DTDIVNNFIT, the IC50 in test [1] (setting [9]) is 7.86 µM; in test [2] (setting [9]), 8.59 µM; in test [3] (setting [9]) it was 5.59 µM; in test [6], 7.68 µM; in test [7] (setting [9]), 2.31 µM.

Consider GVLHTKFWI, for which the IC50 came to 16.6 µM in test [2] (setting [9]); 12.3 µM in test [3] (setting [9]); 43.9 µM in test [6]; 2.71 µM in test [8]; 0.417 µM in test [7] (setting [9]).

Turning to IAVSVYGAIT, the IC50 was 7.89 µM in test [2] (setting [9]), 9.24 µM in test [3] (setting [9]), 14.4 µM in test [4] and 4.38 µM in test [5] (setting [9]).

VTPEYIKDL: the IC50 is 9.23 µM in test [1] (setting [9]); 10.4 µM in test [2] (setting [9]); no less than 70 µM in test [3] (setting [9]); no less than 70 µM in test [6]; 1.76 µM in test [7] (setting [9]).

With NVTGFMEEEI, the IC50 in test [2] (setting [9]) worked out at 10.3 µM; in test [3] (setting [9]), 5.14 µM; in test [4], 17.6 µM; in test [8] it was 4.4 µM; in test [5] (setting [9]), 1.48 µM.

As to KTEHCDDFM, the IC50 in test [1] (setting [9]) is 16.1 µM; in test [2] (setting [9]), 6.5 µM; in test [3] (setting [9]), 18.1 µM; in test [6], no less than 70 µM; in test [7] (setting [9]) it was 2.52 µM.

For FSLGAAVKA, the IC50 in test [1] (setting [10]) is 11 µM; in test [2] (setting [10]), 6.47 µM; in test [3] (setting [10]), 13.4 µM; in test [7] (setting [10]), 0.327 µM; in test [5] (setting [10]), 1.78 µM.

For the sequence KTPVIVVPVI, the IC50 in test [1] (setting [9]) was found to be 12 µM; in test [2] (setting [9]), 9.09 µM; in test [3] (setting [9]) it was 6.2 µM; in test [6], 36.5 µM; in test [7] (setting [9]), 1.89 µM.

These data come from the Immune Epitope Database (IEDB).
